This note sets out measurements from patent publication US20220110942A1 (SAINT LOUIS UNIVERSITY, published 2022).

Ends that are not written are not given here. fluorescein = fluorescein tag at the N-terminus

First the molecules themselves.
B4: Human GCNF (NR6A1) ligand binding domain (LBD), residues 248-480, hexahistidine-tagged (receptor, UniProt Q15406 248-480, looked up)
chain: PQSYSLIHQLLSAEDLEPLGTPMLIEDGYAVTQAELFALLCRLADELLFRQIAWIKKLPFFCELSIKDYTCLLSSTWQELILLSSLTVYSKQIFGELADVTAKYSPSDEELHRFSDEGMEVIERLIYLYHKFHQLKVSNEEYACMKAINFLNQDIRGLTSASQLEQLNKRYWYICQDFTEYKYTHQPNRFPDLMMCLPEIRYIAGKMVNVPLEQLPLLFKVVLHSCKTSVGKE
notes: range 248-480; Expressed in E. coli as a 263-amino acid hexahistidine-tagged construct (30.4 kDa); about 60 kDa homodimer by analytical size exclusion; The tag is placed first as a guess; also called GCNF LBD; wild-type GCNF; not shown: 3C protease-cleavable hexahistidine tag from pET45b(+)

Data set [1] concerns the target B4. As to the kind of experiment: fluorescence polarization, 500 nM fluorescein-tagged peptide, GCNF LBD titrated. On the procedure: (§1) FP Assay. Fluorescence polarization (FP) assays were performed in triplicate on a 384-well Corning 3820 black opaque plate using a Biotek Synergy Neo2 HTS multimode microplate reader at excitation and emission wavelengths of 485 nm and 538 nm, respectively. Data were analyzed and plotted using GraphPad Prism as mean±SEM.
For the corepressor peptide FP binding assay, 70.0, 35.0, 17.5, 8.8, 4.4, 2.2, 1.1, 0.55, 0.27, 0.14, and 0 μM of GCNF LBD was mixed with 500 nM N-terminus fluorescein-tagged corepressor peptides NCoR ID1 ([…] (SEQ ID NO: 1)), NCoR ID2 ([…] (SEQ ID NO: 2)), SMRT ID1 ([…] (SEQ ID NO: 3)), or SMRT ID2 ([…] (SEQ ID NO: 4)) (ThermoFisher Scientific) in assay buffer containing 50 mM HEPES (pH 7.5), 50 mM KCl, 5 mM TCEP, 0.5 mM EDTA and 0.005% Tween20. The relative polarization was plotted against the GCNF LBD concentration and fitted via nonlinear regression (one site specific binding with Hill slope) to extract KD.

For data set [2], the target named is B4. Put plainly: fluorescence polarization, 500 nM fluorescein-tagged peptide, GCNF LBD titrated 0-70 µM. Here is the method: GCNF protein binds directly to DR0 sites or direct repeats of AGGTCA with no spacing between half sites in the promoters of both the Oct4 and Nanog genes and is thought to repress target genes via interactions with corepressors SMRT and NCoR (Furhmann et al., 2001; Gu et al., 2005; Yan et al., 2000). To determine whether ligand binding can affect the interaction between GCNF and its associated corepressor proteins SMRT and NCoR, a fluorescence polarization assay was performed to monitor the ability of ligands to affect corepressor peptide recruitment to the GCNF LBD. Since GCNF LBD was predicted to interact with transcriptional corepressors NCoR and SMRT via its N-terminal portion (Furhmann et al., 2001; Yan et al., 1997; Yan et al., 2000), an FP assay was initially performed consisting of different fluorescein-tagged peptides derived from these corepressors. […] Meanwhile, titrating 34, but not ligand 80, increased the recruitment of SMRT ID2, the tighter binding corepressor peptide (FIG. 4C). […]
as §1
In general terms: In fluorescence polarisation assays a small probe gives low polarisation when free and higher when bound to something large.

Data set [3] concerns the molecule itself. Put plainly: analytical size exclusion chromatography with SDS-PAGE of the pooled fractions.

B1: SMRT ID1 corepressor peptide, N-terminus fluorescein-tagged (peptide)
peptide: fluorescein-GHQRVVTLAQHISEVITQDYTRH
notes: Bought from ThermoFisher Scientific; 500 nM in the FP assay; also called SMRT box 1
Take B1: in data set [1], the binding result is “no binding (tested: GCNF LBD up to 70.0 µM)”.

B2: NCoR ID1 corepressor peptide, N-terminus fluorescein-tagged (peptide)
peptide: fluorescein-RTHLITLADHICQIITQDFARN
notes: Bought from ThermoFisher Scientific; 500 nM in the FP assay; also called NCoR box 1
A word on the Kd: it is a measure of binding affinity in units of concentration. On to B2, for which, in data set [2], the dissociation constant Kd was 32 µM.

B3: NCoR ID2 corepressor peptide, N-terminus fluorescein-tagged (peptide)
peptide: fluorescein-DPASNLGLEDIIRKALMGSFDDK
notes: Bought from ThermoFisher Scientific; 500 nM in the FP assay; also called NCoR box 2
Take B3: in data set [1], the binding result is listed as “no binding (tested: GCNF LBD up to 70.0 µM)”.
For B4, in data set [3], the binding result is listed as “binds”.
